Where no end group is shown, it is not given here. [ ]: non-standard residue; d: D form. AlaP = not defined here
What was measured:
Format in all cases: biochemical
HNE [1] = molecular target: T1, HNE (Homo sapiens, UniProt P08246); assay: Inhibition of protease activity in crude lung secretions of patients (IPF, cystic fibrosis); conditions: 30 min incubation, IPF and CF samples
T1 sequence (P08246 30-267): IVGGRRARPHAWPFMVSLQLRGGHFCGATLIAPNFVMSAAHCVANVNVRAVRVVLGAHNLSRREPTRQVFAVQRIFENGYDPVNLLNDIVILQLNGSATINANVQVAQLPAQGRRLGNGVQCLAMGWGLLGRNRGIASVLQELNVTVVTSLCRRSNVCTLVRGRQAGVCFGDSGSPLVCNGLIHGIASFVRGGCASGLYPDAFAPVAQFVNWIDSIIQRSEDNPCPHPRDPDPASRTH

PR3 [2] = molecular target: T2, PR3 (Homo sapiens, UniProt P24158); assay: Residual activity of purified protease with FRET substrate in presence of increasing amounts of compound; conditions: PR3 1 nM final, 30 min incubation
T2 construct: in a lysate of purified human neutrophils; endogenous in cells; host or cells: purified human neutrophils (lysate)
T2 sequence (P24158 28-248): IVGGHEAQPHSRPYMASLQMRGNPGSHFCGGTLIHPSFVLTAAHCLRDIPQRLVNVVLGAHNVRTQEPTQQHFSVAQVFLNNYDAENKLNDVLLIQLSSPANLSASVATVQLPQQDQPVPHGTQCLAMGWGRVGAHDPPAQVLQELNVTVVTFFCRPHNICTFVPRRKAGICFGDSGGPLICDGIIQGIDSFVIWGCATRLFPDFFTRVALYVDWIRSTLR
From the text: (§1) Phosphonate inhibitors and their biotinylated and fluorescent derivatives were synthesized, purified and controlled by mass spectrometry as reported. Their purity was checked by HPLC (data not shown). Purified Ac-Asp-Tyr-Asp-Ala^P(O—C6H4-4-Cl)2 (compound 1) and Ac-Pro-Tyr-Asp-Ala^P(O—C6H4-4-Cl)2 (compound 2) were first assayed for their inhibitory properties by measuring the residual activity of the human neutrophil serine proteases PR3, HNE and CatG in the presence of increasing amounts of each compound. We used for this purpose the FRET substrates that we developed previously for each protease (18). An almost complete inhibition of PR3 (1 nM final) was obtained after a 30 min incubation time with 20 μM of compound 1 (FIG. 1) and 0.3 μM of compound 2 (FIG. 2). Recombinant PR3K99L, […], HNE and CatG were used in the same experimental conditions. […] This emphasizes the importance of the S2 and S4 subsites to discriminate between PR3 and HNE specificities. Significant inhibition of HNE was obtained using about 100 times more Ac-Pro-Tyr-Asp-Ala^P(O—C6H4-4-Cl)2 than required to inhibit PR3. […] We confirmed this observation kinetically by measuring the second order rate constants kobs/l by competition experiments between the PR3 substrate and each inhibitor (17). As expected the second order rate constant kobs/l for compound 2 was about 100 times greater than that for compound 1 (see Table 1).

CatG = molecular target: T3, CatG (Homo sapiens, UniProt P08311); assay: as above; conditions: CatG 1 nM, same experimental conditions as PR3
T3 sequence (P08311 21-244): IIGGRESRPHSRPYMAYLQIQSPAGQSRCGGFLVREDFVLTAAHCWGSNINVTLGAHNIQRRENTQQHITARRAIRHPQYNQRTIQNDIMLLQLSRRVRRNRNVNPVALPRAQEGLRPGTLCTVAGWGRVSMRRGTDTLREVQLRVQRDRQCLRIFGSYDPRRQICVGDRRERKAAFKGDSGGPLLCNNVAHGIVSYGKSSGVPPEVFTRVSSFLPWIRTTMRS
From the text: as §1

HNE [3] = molecular target: T1, HNE; assay: as above
From the text: as §1

Proteinase 3 = molecular target: T4, Proteinase 3 (Homo sapiens, UniProt P24158); assay: Protease inhibition assay, second order rate constant kobs/[I] (method of Tian and Tsou)
T4 sequence (P24158 28-248): T2 sequence (P24158 28-248)
Method: The compounds of the invention are advantageously selective inhibitors of PR3. […] As described under the Examples below (see PR3 inhibition assay), and as is generally known, efficacy of particular inhibitors against a target protease, for example, recombinant human PR3, is determined by combining the target with a substrate (for example Suc-AanV-SBzI), both in the absence of the inhibitor and in the present of different concentrations of such inhibitor to be tested. Typically, the efficacy of irreversible inhibitors are measured in terms of the second order rate constant of inhibition value (11) or kobs/l. Preferred inhibitors of the invention have typically a kobs/I of more than 10 M^−1s^−1, preferably more than 100 M^−1s^−1, and more preferably of more than […].
The inactivation of proteases by substrate analog inhibitors in the presence of the substrate by competition for the enzyme-binding site, was measured by the method of Tian and Tsou (17). In this system, product formation in the presence of an irreversible inhibitor approaches an asymptote, as described by
log([P∞]−[P])=log [P∞]−0.43A[Y]t
where [P∞] is the concentration of product formed at time approaching infinity, [P] is the concentration of product at time t, [Y] is the inhibitor concentration, and A is the apparent inhibition rate constant in the presence of the substrate. A is given by
where k+0 is the rate constant for association of the inhibitor with the enzyme, K^−1 is the inverted Michaelis constant, and [S] the substrate concentration. The apparent inhibition rate constant A is the slope of a plot of log([P∞]−[P]) against t, to give the second-order rate constant of inhibition k+0

PR3 [4] = molecular target: T2, PR3; assay: Inhibition of PR3 in a lysate of purified human neutrophils; conditions: conditions as with purified proteases
From the text: We first studied the stability and the selectivity of compound 1, 2 and their biotinylated derivatives in a lysate of purified human neutrophils. […] Further, PR3 was selectively inactivated in the neutrophil lysate as shown by western blotting using biotinylated inhibitors.

Substance: Ac-Pro-Tyr-Asp-Ala^P(O—C6H4-4-Cl)2 (Ac-PYD[AlaP]; not fully specified (C-terminus); printed as Ac-Pro-Tyr-Asp-Ala^P(O—C6H4-4-Cl)2; reading uncertain; also: C-terminal Ala as phosphonate analogue (Ala^P)) [Compound 2]
- HNE activity in crude lung secretions (HNE [1]): remained unchanged
- concentration giving almost complete inhibition of PR3 (PR3 [2]): 0.3 µM
- inhibition of CatG (CatG): no significant inhibition
- amount of inhibitor for significant inhibition of HNE relative to that required to inhibit PR3 (HNE [3]): about 100 times
- inhibition of HNE (HNE [3]; HNE 1 nM, same experimental conditions as PR3): no significant inhibition
- Proteinase 3 kobs/[I] (Proteinase 3): 154 ± 3 M⁻¹ s⁻¹
- kobs/I relative to that of compound 1 (Proteinase 3; competition between PR3 substrate and inhibitor): about 100 times
- PR3 activity in neutrophil lysate (PR3 [4]): totally inactivated
